Usually Kd stands for a measure of binding affinity in units of concentration.

The target in test [1] is HLA-A*01:01. Kind of test: IEDB peptide-MHC binding, purified MHC/direct/fluorescence; filed as Kd, often an IC50 or EC50 that approximates it; ≥ and ≤ were set here for values at or beyond the usual limits of such assays.
Test [2] addresses HLA-A*02:01. The description is as above.
Test [3] concerns the target HLA-A*03:01. The description is as above.
The target of test [4] is HLA-A*11:01. The description is as above. The following applies: source organism: Influenza A virus (A/Viet Nam/HN/2004(H5N1)).
Test [5] addresses HLA-A*24:02. The test is described as above.
The target in test [6] is HLA-A*31:01. The test is described as above. Particulars: source organism: Influenza A virus (A/Viet Nam/HN/2004(H5N1)).
In test [7] the target is HLA-B*07:02. The description is as above.
For test [8], the target named is HLA-B*08:01. The test is described as above.
The target of test [9] is HLA-B*15:01. Described as above.
Test [10] deals with HLA-B*27:05. The description is as above.
Test [11] has as its target HLA-B*40:01. Described as above.
Test [12] addresses HLA-B*44:02. Described as above.
In test [13] the target is HLA-B*46:01. Described as above. Particulars: source organism: Influenza A virus (A/Viet Nam/HN/2004(H5N1)).
In test [14] the target is HLA-B*58:01. The description is as above.
Test [15] addresses HLA-A*80:01. The test is described as above.
Test [16] has as its target HLA-A*30:02. Nature of the test: IEDB peptide-MHC binding, purified MHC/competitive/radioactivity; filed as Kd, often an IC50 or EC50 that approximates it; ≥ and ≤ were set here for values at or beyond the usual limits of such assays. The following applies: source organism: Dengue virus 2 Jamaica/1409/1983.
Test [17] addresses HLA-A*32:01. Described as above. Particulars: source organism: Dengue virus 2 Jamaica/1409/1983.
In test [18] the target is HLA-B*15:01. The test is described as above. Particulars: source organism: Dengue virus 2 Jamaica/1409/1983.
In test [19] the target is HLA-B*57:01. The description is as above. The following applies: source organism: Dengue virus 2 Jamaica/1409/1983.
Test [20] addresses HLA-C*04:01. Kind of test: IEDB peptide-MHC binding, purified MHC/direct/fluorescence; filed as Kd, often an IC50 or EC50 that approximates it; ≥ and ≤ were set here for values at or beyond the usual limits of such assays.
Test [21] concerns the target HLA-C*05:01. The description is as above. The following applies: source organism: Escherichia coli B171.
Test [22] addresses HLA-A*02:01. Kind of test: IEDB peptide-MHC binding, purified MHC/competitive/fluorescence; filed as Kd, often an IC50 or EC50 that approximates it; ≥ and ≤ were set here for values at or beyond the usual limits of such assays.
Test [23] has as its target HLA-C*06:02. Kind of test: IEDB peptide-MHC binding, purified MHC/direct/fluorescence; filed as Kd, often an IC50 or EC50 that approximates it; ≥ and ≤ were set here for values at or beyond the usual limits of such assays. Particulars: source organism: Vaccinia virus WR.
The target of test [24] is HLA-C*08:02. The test is described as above. Particulars: source organism: Vaccinia virus WR.
Test [25] has as its target HLA-C*12:03. The description is as above. The following applies: source organism: Vaccinia virus WR.
The target of test [26] is HLA-C*15:02. The test is described as above. Particulars: source organism: Vaccinia virus WR.
Test [27] has as its target HLA-A*01:01. Kind of test: IEDB peptide-MHC binding, purified MHC/competitive/fluorescence; filed as Kd, often an IC50 or EC50 that approximates it; ≥ and ≤ were set here for values at or beyond the usual limits of such assays. The following applies: source organism: Homo sapiens.
Where [28] appears, read: source organism: Influenza A virus (A/Viet Nam/HN/2004(H5N1)).
Setting [29] is: source organism: Mycobacterium tuberculosis.
The mark [30] stands for this setting: source organism: Giardia lamblia ATCC 50803.
Where [31] appears, read: source organism: Vaccinia virus WR.

RNEQGQTLW: the Kd in test [1] (setting [28]), in [2] (setting [28]), in [3] (setting [28]), in [4], in test [5] (setting [28]) and in test [6] was not below 20 µM each time. Moreover, the Kd in test [7] (setting [28]), in [8] (setting [28]), in [9] (setting [28]), in test [10] (setting [28]), in test [11] (setting [28]) and in test [12] (setting [28]) was not below 20 µM each time. The Kd in test [13] is not below 20 µM; in test [14] (setting [28]) it was 0.0718 µM.

With KTVCVQATK, the Kd in test [1] (setting [29]) and in test [15] (setting [29]) was not below 20 µM in each case.

ETKKRMDYF: the Kd in test [1] (setting [30]) is not below 20 µM; in test [2] (setting [30]), not below 20 µM; in test [3] (setting [30]), not below 20 µM; in test [5] (setting [30]), not below 20 µM; in test [7] (setting [30]), not below 20 µM; in [8] (setting [30]), 1.56 µM. The Kd in test [9] (setting [30]), in test [10] (setting [30]), in [11] (setting [30]), in test [12] (setting [30]) and in test [14] (setting [30]) was not below 20 µM in each case.

As for KTWAYHGSY, the Kd in test [15] (source organism: dengue virus type 3) was 3 µM; in test [16], 4.05 µM; in test [17], 0.00506 µM; in test [18] it was 0.00288 µM; in test [19], 0.00457 µM.

HADDIPVPV: the Kd in test [20] (source organism: Escherichia coli B171) was not below 20 µM; in test [21] it was 0.004 µM; in test [22] (source organism: Escherichia coli) it was 0.0649 µM.

Take IFPSMYFLM: in [5] (source organism: Entamoeba histolytica HM-1:IMSS), the Kd stood at 0.002 µM.

For the sequence FTSSFYNYV, the Kd in test [20] (setting [31]) is not below 20 µM; in [23], 0.089 µM; in [24], 0.818 µM; in test [25] it was not above 0.001 µM; in test [26] it was 0.019 µM; in test [22] (setting [31]), 0.0046 µM.

WVDSTPPPG: the results for the Kd in test [15] (source organism: Homo sapiens) and in [27] were not below 20 µM and 11.6 µM, respectively.

The values above are taken from the Immune Epitope Database (IEDB).
